From a protein production outcome set (Wang et al. 2014)

Assay: label from the status in PepcDB records

| Sequence | protein production |
| --- | --- |
| MKIKRLYLLGAWLLLGVSVSAQITSIQPQPQQVLSQARNLSLPDTYLIVGDTEANTHAVSALKTLLAGKHSDKNGFRIYIGEKGDKAIRKFARQIPNHKEGYYLAINDKEIVLAGQDGRGTFYALQTLAQLLNDNQLPVVEIKDYPSVRFRGVVEGFYGTPWSHEARLRQLKFYGENKMNTYIYGPKDDPYHSSPNWRLPYPEKEALQLQELVKVANENEVDFVWAIHPGQDIKWNQEDRDLLLAKFEKMYDLGVRSFAVFFDDISGEGTNPNKQAELLNYIDEKFVKVKPDVTPLVMCPTEYNKSWSNPKGNYLTTLGEKLNPSIQIMWTGDRVISDITKDGIAWINARIKRPAYIWWNFPVSDYVRDHLLLGPVYGNDTQIADQMSGFVTNPMEHAEASKIAIYSVAGYAWNPEKYNSEQTWKDAIRTILPSAADELEFFAAHNSDLGPNGHKYRRDESVELQPLSQRFLDSYLKNGSYTEADFNALEATFGKMVESGDVLMTNTGNRPLIVEMMPWLRQFKLLGETGQEVLAMAKAYKEGDNSLFIRKYRHVKALQQQMFQVDQTYNQNPYQPGVKTATKVIKPLIDQTFTTVTERYNKEHGTQLDAATDYMPHKLVSDVEQLRNQPLQIKTNRVLVSPANEVIKWGAGCTLTIELDQAYPGENLDIDFGKPDVAAWGQLEISADGKEWQKVDFKQEKNRITLNLKQTPVKAVRFSNVGNAEQEVYLRRFMITLDK | failed |
| MEFMHDKSAEDEGITLVSEPMDTTVATHESRRNAAAFSSVVAPTTDDEIVHERFDPAFEVQADFYGFDENAPPLPLPEEYYSELPLPEEDRQYIPPPPALIPVEPETTFRRPRTRQQRRTESQLVQPVSVATYEDSKASLRVLMQQLPPPGDNVVARIPKRTHRVVRTLPPTFGTTKREENFYGFSKTAISWRKTRASWRHFCLLING | failed |
| MRKDETSNTSPDISAAQPASALRYHLRPPRRNDGAAIHQLVSECPPLDLNSLYAYLLLCEHHAHTCVVAESPGGRIDGFVSAYLLPTRPDVLFVWQVAVHSRARGHRLGRAMLGHILERQECRHVRHLETTVGPDNQASRRTFAGLAGERGAHVSEQPFFDRQAFGGADHDDEMLLRIGPFTHPPH | failed |
| RMSHHYATIEVSQQLRQLLGDQLVILLRETPDGQALERSQNDFRRVLEQGRANTVDSAEQAALDGVRDAYLQLQAHTPALLEAPMADNDGFSEAFNGLRLRLQDLQQLALAGISEAE | not failed |
| MEIKGESMQKSKFRRICVFCGSSQGKKSSYQDAAVDLGNELVSRNIDLVYGGGSIGLMGLVSQAVHDGGRHLTGETVGEVRAVADMHQRKAEMAKHSDAFIALPGGYGTLEELLEVITWAQLGIHDKPVGLLNVDGYYNSLLSFIDKAVEEGFISPTAREIIVSAPTAKELVKKLEVN | not failed |
| MSKKSGLSFLWLSAVAFVIDLLTKYIVVQKFDLYESVNVLPVFNLTYVRNYGAAFSFLADHSGWQQYFFILLALAISGMLVYFLAKNNAEQKIQNSAYALIIGGALANMVDRAYNGFVVDFFDFYWDIYHYPVFNIADIAICIGAGLLVLDAFKSEKKKVQDKQVEKCGQK | failed |
| ADDFAMEMGLACVVCRQMTVASGNQLVECQECHNLYHQDCHKPQVTDKEVNXPSRGVVLCPGTRQMKRMAQKNQK | not failed |
| MSPRDVLDSIFAFPPNRDTLGGTSYLIVGNEGNILIDCPALDQTNLNFLRSHGGVRWLFLTHRGAIGRTAEIQQNYGCDILIQEQEAYLLPGLTVTTFTQEFAVTPTAKAIWTPGHSPGSSCLYYNHQGGVLFSGRHLLPNQKGEPVPLRTAKTFHWPRQIKSLQTILETLTPETLQYICPGANTGFLRGKRSIDTAYQRLASLDLKALLQTQPLILEHHHHHH | not failed |
| MRKSLKMTIGIGLILSCFGLILVGIGLSSGGIDKLQVKDDQAPKKEVQFDNIQSLDLDLSVRNIKIESSQDQHFKLTYYKKLDEEISHKVQHQKLNLKQKEKFRIHFFVLSDFFNWFHQDDTNTVTLAIPKNVQLKDVSIKNNVGDITIKNQQASKITVHQNTGNLNIYNSQIAKGKVSSDVGNIAIQNSSLSNIDVVDHTGDISAENLTVLNLVRMTNNIGNTNVSLSPQSAQATIVSTKTDVGHTDISHQLLQGYSGKNRLAVKGDTGNIQIK | failed |
| LETSSYLNVLVNSQWKSRWCSVRDNHLHFYQDRNRSKVAQQPLSLVGCEVVPDPSPDHLYSFRILHKGEELAKLEAKSSEEMGHWLGLLLSESG | not failed |
